From paper PMC12095639

Biological target: Ankyrin and SOCS Box-containing protein-10 (Asb10), rat, FLAG-tagged, expressed from adenovirus (Ad-Asb10) (rat)
Experiment: co-IP; NRVMs overexpressing Asb10; lysates incubated with antibody and Protein A&G magnet beads overnight at 4 °C, washed 5 times with 0.5% PBST; western blot of candidate interacting proteins (Fig. 3C)

fold weaker binding than HSP70 with Asb10: 10 fold
Substance: HSC70, endogenous in NRVMs (from UniProt P63018 1-646) (natural protein)
